18 molecules from patent US9371374 can be followed below.

The chains are these.
B1: HCV 208B-517 (antibody, V domains shown)
VH: QVQLKQSGPGLVQPSQSLSITCTVSGFSLITHGVHWVRQSPGKGLEWLGVIWSGGSTDYNAAFISRLSISKDTSKSQVFLKMSSLQADDTAIYYCARNGGATAFDYWGQGTTLTVSS
VL: DIVMTQSPATLSVTPGDRVSLSCRASQSISDYLHWYQQKSHESPRLLIKYASQSISGIPSRFRGSGSGSHFTLSINSVEPEDVGVYYCQNGHSFPWTFGGGTKLEIKR
B2: HCV 208B-327 (antibody, V domains shown)
VH: EVQLVESGGGLVKPGGSLKLSCAASGFTFSDSYMYWVRQTPDQRLEWVATISDGGSYTFYPDSVKGRFTISRDNAQNNLYLQMSSLKSEDTAMYYCASPHAGYFGWFAYWGRGTLVTVSA
VL: DIVMTQAAFSNPVTPGTSVSISCRSSKSLLHSNGITYLYWYLQKPGQSPQLLIYQMSKIASGVPDRFRSSGSGTDFTLRISRVEAADVGVYYCAQNLELPWTFGGGTKLEIKR
B3: HCV 208B-612 (antibody, V domains shown)
VH: EVQLQQSGPELVKPGASVKMSCKASGYRFTSYVMHWVRQKPGQGLEWIGYIDPHNDDTKYSEKFRGKATLTSDKSSTTAYMELSSLTSEDSAVYYCVRYSYDRDYSPMDYWGQGTSVTVSS
VL: QIVLTQSPTLMSASPGEKVTMTCSASSTVTYIYWYQQKPGSSPRLWMYDTFNLVSGVPARFSGSRSGTSYFLTISSMEGEDAATYYCQQYSDSPYTFGGGTKLEIKR
B4: HCV 208B-408 (antibody, V domains shown)
VH: EVKLVESGGGLVQPGGSLRLSCASSGFTFTDYYMSWVRQPPGKALEWLGFIRNKAYGYTTEFSASVNGRFTISRDDSQSVPYLQMNTLRAEDSATYYCARVLYYDYGGFAYWGQGTLVTVST
VL: DIQMTQSPASLSASVGETVTITCRASGNIHTYLAWYQQKQGKSPQLLVYNANTLADGVPSRFSGSGSGTQFSLKINSLQPDDFGSYYCQHFWSAPWTFGGGTQLEIKR
B5: HCV 208B-251 (antibody, V domains shown)
VH: QLQQSGPVLVKPGASVKISCKTSGYTFTENAMHWVKQSHGKSLEWIGGVNPNNGDTIYNQKFKGKATLTVDKSSSTAFMELRSLTSEESPVYFCVRRELDFFDYWGQGTSVTVSS
VL: DIVLTQSPASLAVSLGKKATISCRASQSVSTSRYSYMHWYQQKPGHPPKLLIKYASNLESGVPARFSGSGSGTDFTLNIHPVAEEDTAAYYCQHSWEFPFTFGSGTKLEIKR
B6: HCV 208B-560 (antibody, V domains shown)
VH: EVQLQQSGPELEKPGASVKISCKTSGYTFTEYAMHWVKQSHGMSLEWIGGINPSNGNAIYNQIFKDKATLTVDRSSSTAYMGLRSLTFGDSGVYFCVRRQLDFFDYWGQGASLTVSS
VL: B5 VL with L4V, K17Q, K18R, M37L, H46Q, A83G, A89T
B7: HCV 208B-672 (antibody, V domains shown)
VH: EVKLVESGGSLVQPGGSLKLSCAASGFNFNTYAMSWVRQTPEKRLEWVAYISNGGGNTYYVDTVKGRFTISRDNAKNTLYLRMSSLKSEDTAMYYCARHGLYWGYSMDYWGQGTSVTVSS
VL: DIQMTQSPSSLSASLGERVSLTCRASQDIGGSINWLQQEPDGTIKRLIYATSSLDSGVPKRFSGSRSGSDYSLTISSLESEDFVDYYCLQYASSPPTFGGGTKLEIKR
B8: HCV 208B-1096 (antibody, V domains shown)
VH: QVQLQQSGAGLAKPGASVKMSCKASGYTFTANKMHWAKQRPGQGLEWIGYIDPSSGYTEYNHKIQYKATLTADTSSSTAYMQLSTLTFEDSAVYYCTNFAYWGQGTLVTVSA
VL: DIVMTQTPLTLSVTIGQPASISCKSSQSLLFTNGKTYLNWFLQRPGQSPKRLIYLLSKLDSGVPDRFSGSGSGTDFTLKISRVEAEDLGVYYCLQSTYFPLTFGAGTKLELKR
B9: HCV 208B-547 (antibody, V domains shown)
VH: B8 VH with G10E, A31S, H62Q, Q65K, Y66D, T74K, T85S, F88S
VL: EVVLTQSPAITAASLGQKVTITCRASSSVSYMHWYRQKSGTSPQPWIYEISTLASGVPTRFRASGSGTSYSLTISSMEAEDAAIYYCQQWNYPLTFGAGTKLELKR
B10: HCV 208B-395 (antibody, V domains shown)
VH: B8 VH with A37T, E59Q, Y66D, T85S
VL: DIVLTQSPATLSVTPGDRVSLSCRASQRIYNYLHWYQQKSHESPRLLIKYASQSISGIPSRFSGSGSGTDFILTINSVETEDFGMYFCQQSNSWPLTFGAGTKLELRR
B11: HCV 208B-589 (antibody, V domains shown)
VH: B8 VH with Y66D, T85S
VL: B8 VL
B12: HCV 208B-1094 (antibody, V domains shown)
VH: EVQLQQSGPELVKPGASVKISCKTSGYTFTEYAMHWMKQSHGKSLEWIGGINPTNGDTIYNQRFKDKAKLTVDRSSSTAYMELRSLTSDDSALFYCARRELDYFASWGQGTTLTVSS
VL: DIVLTQSPASLIVSLGQTATISCRASQSLSTSRFSYVHWIQQKPGQPPKLLIKYASNLESGVPVRFSGSGSGTDFTLNIHPVEEEDTATYFCQHSWEFPFTFGSGTKLKIKR
B13: HCV 208B-556 (antibody, V domains shown)
VH: B5 VH with K17M, Y58F, L81F, P90T, F93Y
VL: B5 VL with K17Q, K18R, H46Q, A89T
B14: HCV 208B-178 (antibody, V domains shown)
VH: DVKLVESGGGLVKLGGSLKLSCAASGFTFSSYYMSWVRQTPEKRLELVAAINSNGGSTYYPDTVKGRFTISRDNAKNTLYLQMSSLKSEDTALYYCARHGGLGRRDWYFDVWGAGTTVTVSS
VL: DIVLTQSPASLAVSLGQRATISCRASESVDNYGISFMHWYQQKPGQPPKLLIYRASNLESGIPARFSGSGSRTDFTLTINPVETDDVATYYCQQSNKDPFTFGSGAKLEIKR
B15: HCV 208B-189 (antibody, V domains shown)
VH: QVHLQQSGAELAKPGASVQMSCKASGYTFTANKMHWARQRPRQGLEWIGYIDPASGYTEYNQKIKDRATLTADKSSSTAYMQLSSLTSEDSAVYYCTNFAYWGQGTLVTVST
VL: not shown
B16: HCV 208B-1024 (antibody, V domains shown)
VH: EVQLVESGGDLVKPGGSLKLSCAASGFTFSNYGMSWVRQTPDKRLEWVATISSGGSYSYYPDSVKGRFTISRDNAKNILYLQMSSLKSEDTAMYYCASLYYGYGDYWGQGTAFTVSS
VL: DVLMTQTPLSLPVSLGDQASISCRSSQSIVHSNGNTYLEWYLQKLGQSPKLLIYRVSNRFSGVPDRFSGSGSGTDFTLKISRVEAEDLGVYYCFQGSHVPWTFGGGTKLEIKR
B17: HCV 208B-281 (antibody, V domains shown)
VH: QGQLQQSGAELVKPGASVKLSCKTSGFTFSSSYISWLKQRPGQSLEWIAWIYAGTGGTNYNQKFTDKAQLTVDTSSSTAYMQFSSLTTEDSAIYYCAISGTGFIYWGQGTLVTVSA
VL: B16 VL with I29L, S32N, Y41F, L45P, R55K, W101F, G105S
B18: HCV 208B-515 (antibody, V domains shown)
VH: QVQLQQPGAELVKPGASLKLSCRASGYTFTSYWIHWVKQRPGQGLEWIGEIDPSDSYTNYNQKFKGKATLTVDKSSRAAYMQLSSLTSEDSAVYYCARHYYGVFDSWGQGTKLTVSS
VL: QIVFTQYPAIMSASLGERVTMTCTASSSVTSSYLHWFQQKPGSSPKLWIYSTSNPGSGVPARFSGRGSGTSYSLSISSMEAEDAATYYCLQFHRSPWTFGGGTKLEIRR

Numbering of substitutions follows the chain as printed.

One test concerns the target biotinylated HCV core peptide 141-161 (Peptide 2) (HCV-1). Description: EIA, captured mAb.
B1: the Reactivity (OD492) stood at 0.41 OD.

The molecule B2 registered a Reactivity (OD492) of 0.05 OD.

Take B3: the Reactivity (OD492) is 3.04 OD.

The molecule B4 yielded a Reactivity (OD492) of 0.2 OD.

The molecule B5 came in with a Reactivity (OD492) of 2.35 OD.

On to B6, for which the Reactivity (OD492) was determined as 3.9 OD.

The molecule B7 returned a Reactivity (OD492) of 2.79 OD.

B8 registered a Reactivity (OD492) of 0.13 OD.

In turn, B9 returned a Reactivity (OD492) of 0.08 OD.

On to B10, for which the Reactivity (OD492) came out at 0.13 OD.

B11: the Reactivity (OD492) came to 0.1 OD.

Turning to B12, the Reactivity (OD492) worked out at 3.28 OD.

Take B13: the Reactivity (OD492) is 3.07 OD.

B14: the Reactivity (OD492) was found to be 0.07 OD.

Turning to B15, the Reactivity (OD492) turned out to be 0.15 OD.

With B16, the Reactivity (OD492) was found to be 0.75 OD.

In the case of B17, the Reactivity (OD492) is 0.16 OD.

In turn, B18 came in with a Reactivity (OD492) of 0.13 OD.

The next test deals with biotinylated HCV core peptide 134-154 (Peptide 1) (HCV-1). Description: EIA, captured mAb.
In the case of B1, the Reactivity (OD492) turned out to be 0.1 OD.

As to B2, the Reactivity (OD492) is 0.07 OD.

In the case of B3, the Reactivity (OD492) was determined as 3.05 OD.

B4 showed a Reactivity (OD492) of 0.81 OD.

In turn, B5 came in with a Reactivity (OD492) of 0.11 OD.

As for B6, the Reactivity (OD492) was found to be 0.11 OD.

On to B7, for which the Reactivity (OD492) is 0.08 OD.

Molecule B8 yielded a Reactivity (OD492) of 0.34 OD.

B9 registered a Reactivity (OD492) of 0.12 OD.

Molecule B10 displayed a Reactivity (OD492) of 0.54 OD.

In the case of B11, the Reactivity (OD492) is 0.27 OD.

The molecule B12 registered a Reactivity (OD492) of 0.12 OD.

Molecule B13 came in with a Reactivity (OD492) of 0.13 OD.

For B14, the Reactivity (OD492) was 0.1 OD.

In turn, B15 gave a Reactivity (OD492) of 0.55 OD.

With B16, the Reactivity (OD492) amounted to 0.08 OD.

In the case of B17, the Reactivity (OD492) worked out at 1.48 OD.

B18: the Reactivity (OD492) turned out to be 0.51 OD.

The target in another test is biotinylated HCV core peptide 151-171 (Peptide 3) (HCV-1). The test is described as follows: EIA, captured mAb.
With B1, the Reactivity (OD492) stood at 0.7 OD.

The molecule B2 came in with a Reactivity (OD492) of 0.49 OD.

The molecule B3 returned a Reactivity (OD492) of 0.15 OD.

Take B4: the Reactivity (OD492) turned out to be 0.16 OD.

Molecule B5 gave a Reactivity (OD492) of 0.41 OD.

Take B6: the Reactivity (OD492) was 0.14 OD.

B7 came in with a Reactivity (OD492) of 0.1 OD.

In the case of B8, the Reactivity (OD492) was 3.56 OD.

Regarding B9, the Reactivity (OD492) came out at 2.9 OD.

B10 showed a Reactivity (OD492) of 3.69 OD.

Take B11: the Reactivity (OD492) was determined as 2.85 OD.

In turn, B12 came in with a Reactivity (OD492) of 0.13 OD.

Regarding B13, the Reactivity (OD492) is 0.18 OD.

The molecule B14 registered a Reactivity (OD492) of 1.69 OD.

For B15, the Reactivity (OD492) came out at 3.95 OD.

Molecule B16 returned a Reactivity (OD492) of 0.15 OD.

For the molecule B17, the Reactivity (OD492) was 0.12 OD.

B18: the Reactivity (OD492) was determined as 0.06 OD.
